Measured values taken from US20220411487A1.

How the values were obtained:
[1] = target: full length cynomolgous monkey TMPRSS6 on HEK293 cells (HEK293/mfTMPRSS6) (cynomolgous monkey/Macaca fascicularis); test: flow cytometry, HEK293 cells expressing target, secondary alone
[2] = target: full length human TMPRSS6 on HEK293 cells (HEK293/hTMPRSS6) (human) (UniProt Q8IU80); test: as above
[3] = target: full length mouse TMPRSS6 on HEK293 cells (HEK293/mTMPRSS6) (mouse) (UniProt Q9DBI0); test: as above
Sequence of full length mouse TMPRSS6 on HEK293 cells (HEK293/mTMPRSS6) (mouse) (Q9DBI0 whole entry): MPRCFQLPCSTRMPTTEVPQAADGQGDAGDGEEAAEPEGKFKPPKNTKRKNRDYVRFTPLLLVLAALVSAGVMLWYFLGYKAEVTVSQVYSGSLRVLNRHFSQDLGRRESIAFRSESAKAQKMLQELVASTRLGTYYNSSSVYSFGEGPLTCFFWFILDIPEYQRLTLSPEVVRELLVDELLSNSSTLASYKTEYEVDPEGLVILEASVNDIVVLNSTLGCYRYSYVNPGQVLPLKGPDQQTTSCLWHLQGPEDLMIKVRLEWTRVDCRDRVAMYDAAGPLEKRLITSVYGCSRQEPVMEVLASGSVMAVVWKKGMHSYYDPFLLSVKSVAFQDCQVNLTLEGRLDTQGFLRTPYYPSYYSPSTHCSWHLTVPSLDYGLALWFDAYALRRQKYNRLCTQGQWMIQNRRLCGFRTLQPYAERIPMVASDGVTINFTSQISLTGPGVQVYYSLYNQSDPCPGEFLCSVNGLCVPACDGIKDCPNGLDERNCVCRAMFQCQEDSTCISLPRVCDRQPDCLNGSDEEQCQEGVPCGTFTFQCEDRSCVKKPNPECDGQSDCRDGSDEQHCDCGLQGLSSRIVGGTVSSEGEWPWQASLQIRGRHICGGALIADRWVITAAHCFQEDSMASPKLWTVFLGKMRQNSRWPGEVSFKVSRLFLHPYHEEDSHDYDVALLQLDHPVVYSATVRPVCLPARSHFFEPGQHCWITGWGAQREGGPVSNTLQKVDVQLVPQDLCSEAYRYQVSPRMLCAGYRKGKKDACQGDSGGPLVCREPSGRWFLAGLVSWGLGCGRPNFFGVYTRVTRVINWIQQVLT

[4] = target: catalytically inactive full length human TMPRSS6 on HEK293 cells (HEK293/hTMPRSS6 (S762A)) (human) (UniProt Q8IU80); test: as above
Sequence of catalytically inactive full length human TMPRSS6 on HEK293 cells (HEK293/hTMPRSS6 (S762A)) (human) (Q8IU80 10-811 S762A): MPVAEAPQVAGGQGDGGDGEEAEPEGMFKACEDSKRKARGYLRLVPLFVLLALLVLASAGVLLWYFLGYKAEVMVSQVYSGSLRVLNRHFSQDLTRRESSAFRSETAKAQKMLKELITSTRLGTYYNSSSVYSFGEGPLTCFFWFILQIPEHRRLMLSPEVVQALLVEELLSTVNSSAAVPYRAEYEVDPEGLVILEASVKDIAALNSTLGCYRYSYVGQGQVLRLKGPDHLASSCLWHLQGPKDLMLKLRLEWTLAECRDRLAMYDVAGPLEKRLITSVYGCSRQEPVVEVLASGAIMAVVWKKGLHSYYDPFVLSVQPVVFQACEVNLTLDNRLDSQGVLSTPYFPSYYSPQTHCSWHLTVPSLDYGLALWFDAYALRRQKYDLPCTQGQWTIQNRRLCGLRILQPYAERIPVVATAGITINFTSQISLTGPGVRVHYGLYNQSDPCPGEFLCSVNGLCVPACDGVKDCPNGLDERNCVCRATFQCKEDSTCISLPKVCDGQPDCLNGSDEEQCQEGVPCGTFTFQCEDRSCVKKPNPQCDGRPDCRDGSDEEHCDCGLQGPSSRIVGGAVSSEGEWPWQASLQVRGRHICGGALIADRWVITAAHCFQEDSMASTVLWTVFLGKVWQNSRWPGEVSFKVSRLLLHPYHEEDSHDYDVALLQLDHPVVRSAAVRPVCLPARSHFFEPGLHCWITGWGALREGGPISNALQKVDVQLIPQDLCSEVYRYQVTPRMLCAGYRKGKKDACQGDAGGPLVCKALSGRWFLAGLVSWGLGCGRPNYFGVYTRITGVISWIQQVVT

[5] = target: full-length mouse TMPRSS6 with a C-terminal triple myc tag on HEK293.hHJV cells (HEK293.hHJV/3xMyc.mTMPRSS6) (mouse) (UniProt Q9DBI0); test: cell-based or functional assay
[6] = target: full length human TMPRSS6 with a C-terminal triple myc tag on HEK293.hHJV cells (HEK293.hHJV/3xMyc.hTMPRSS6) (human) (UniProt Q8IU80); test: cell-based or functional assay
[7] = target: full length cynomolgous monkey TMPRSS6 on HEK293 cells (HEK293/mfTMPRSS6) (cynomolgous monkey/Macaca fascicularis); test: flow cytometry, HEK293 cells expressing target
[8] = target: full length human TMPRSS6 on HEK293 cells (HEK293/hTMPRSS6) (human) (UniProt Q8IU80); test: flow cytometry, HEK293 cells expressing target
[9] = target: full length mouse TMPRSS6 on HEK293 cells (HEK293/mTMPRSS6) (mouse) (UniProt Q9DBI0); test: flow cytometry, HEK293 cells expressing target
[10] = target: catalytically inactive full length human TMPRSS6 on HEK293 cells (HEK293/hTMPRSS6 (S762A)) (human) (UniProt Q8IU80); test: flow cytometry, HEK293 cells expressing target

Sequence of full length human TMPRSS6 on HEK293 cells (HEK293/hTMPRSS6) (human) (Q8IU80 10-811 limits assumed): as the sequence (Q8IU80 10-811 S762A) above, with A753S counted along it
Sequence of full length cynomolgous monkey TMPRSS6 on HEK293 cells (HEK293/mfTMPRSS6) (cynomolgous monkey/Macaca fascicularis) (Q8IU80 other isoform, or with tags, fused parts or gaps): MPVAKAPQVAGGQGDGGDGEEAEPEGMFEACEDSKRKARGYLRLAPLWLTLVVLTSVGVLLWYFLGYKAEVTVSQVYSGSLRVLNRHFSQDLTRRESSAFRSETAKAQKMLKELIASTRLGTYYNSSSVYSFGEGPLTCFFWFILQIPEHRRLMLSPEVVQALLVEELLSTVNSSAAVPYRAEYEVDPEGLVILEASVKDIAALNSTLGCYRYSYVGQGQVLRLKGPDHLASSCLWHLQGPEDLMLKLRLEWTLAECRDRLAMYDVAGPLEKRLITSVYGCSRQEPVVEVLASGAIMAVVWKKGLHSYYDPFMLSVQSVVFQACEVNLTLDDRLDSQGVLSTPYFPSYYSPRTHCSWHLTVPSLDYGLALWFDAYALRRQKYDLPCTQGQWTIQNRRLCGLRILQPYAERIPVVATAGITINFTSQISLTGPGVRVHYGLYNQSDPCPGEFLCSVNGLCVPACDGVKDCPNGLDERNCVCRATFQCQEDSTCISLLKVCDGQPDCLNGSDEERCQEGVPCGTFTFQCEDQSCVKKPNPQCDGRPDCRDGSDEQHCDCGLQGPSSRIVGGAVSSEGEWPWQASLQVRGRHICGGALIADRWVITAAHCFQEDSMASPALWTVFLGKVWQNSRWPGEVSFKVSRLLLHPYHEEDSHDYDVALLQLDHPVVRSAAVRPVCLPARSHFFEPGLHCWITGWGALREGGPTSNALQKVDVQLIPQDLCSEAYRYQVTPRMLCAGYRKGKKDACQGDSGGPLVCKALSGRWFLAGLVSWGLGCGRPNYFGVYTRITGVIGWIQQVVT

## Alexa Fluor-647 conjugated anti-human secondary antibody (Jackson ImmunoResearch #109-607-003)
[1]
  Max. Fold Binding (fold over unstained control): 1
[2]
  Max. Fold Binding (fold over unstained control): 1
[3]
  Max. Fold Binding (fold over unstained control): 1
[4]
  Max. Fold Binding (fold over unstained control): 2

## Isotype Control (antibody)
[5]
  Geometric Mean Fluorescence Intensity of cell surface hHJV: 7750
  Inhibition (%) of soluble hHJV release (ELISA): 5.2%
  Median Fluorescence Intensity of cell surface hHJV: 7230
[6]
  Geometric Mean Fluorescence Intensity of cell surface hHJV: 11700
  Inhibition (%) of soluble hHJV release (ELISA): 15.7%
  Median Fluorescence Intensity of cell surface hHJV: 13000

## hIgG Subclass Control (antibody)
[7]
  Max. Fold Binding (fold over unstained control): 1
[8]
  Max. Fold Binding (fold over unstained control): 1
[9]
  Max. Fold Binding (fold over unstained control): 1
[10]
  Max. Fold Binding (fold over unstained control): 3
